For test [1], the target named is T1, Human Notch4-NRR domain Fc fusion protein (human, UniProt Q99466 1046-1445, limits assumed).
T1 construct: Expressed in a CHO cell line, used from culture supernatant; 1 is named; also called Human Notch4-NRR Fusion Protein; not shown: Fc
T1 sequence: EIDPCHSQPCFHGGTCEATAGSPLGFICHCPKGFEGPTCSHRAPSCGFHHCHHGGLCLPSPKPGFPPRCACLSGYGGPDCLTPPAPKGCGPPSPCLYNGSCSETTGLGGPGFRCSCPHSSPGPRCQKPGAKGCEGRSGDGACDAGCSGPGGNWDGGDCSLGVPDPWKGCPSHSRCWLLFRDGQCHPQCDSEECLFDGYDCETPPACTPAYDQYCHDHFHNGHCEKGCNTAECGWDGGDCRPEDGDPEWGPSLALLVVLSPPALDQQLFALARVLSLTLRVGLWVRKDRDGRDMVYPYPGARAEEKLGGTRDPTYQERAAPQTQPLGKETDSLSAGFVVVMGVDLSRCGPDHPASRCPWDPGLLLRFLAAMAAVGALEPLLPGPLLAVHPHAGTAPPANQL
In words: SPR (Biacore) as for Table 30; Notch4-NRR-Fc captured, antibody injected; averaged, N=1. As for the experimental part: (§1) Kinetic analysis of further anti-Notch4 inhibitory humanized antibodies was carried out as follows. Human Notch4-NRR domain Fc fusion proteins were expressed with a CHO cell line. The antigen in the culture supernatant was captured by the anti-human Notch4 antibody fixed on a CM5 sensor chip that recognizes different epitopes of human Notch4. The humanized anti-human Notch4 antibody was then injected onto the sensor chip at various concentrations. The interaction and disassociation constants thereof were calculated according to manufacturer's instructions.

Test [2] concerns the target T1, Human Notch4-NRR domain Fc fusion …. In words: SPR (Biacore) as for Table 30; Notch4-NRR-Fc captured, antibody injected; averaged, N=4. On the procedure:
as §1

Test [3] has the same target. In words: SPR (Biacore) as for Table 30; Notch4-NRR-Fc captured, antibody injected; averaged, N=3. As for the experimental part:
as §1

Test [4] has the same target. Description: SPR (Biacore) as for Table 30; Notch4-NRR-Fc captured, antibody injected; averaged, N=2. As for the experimental part: as §1
The target is the same in test [5]. Description: SPR (Biacore) as for Table 30; Notch4-NRR-Fc captured, antibody injected; averaged, N=5. As for the experimental part:
as §1

Numbering of substitutions follows the chain as printed. Numbers in names are those of the source.

B1: HA1L3 (antibody, human IgG2, kappa, V domains shown)
VH: EVQLVESGGGLVQPGGSLRLSCAASGFTFSSYGMSWVRQAPGKGLEYVSTINSNGGRTYYANSVKGRFTISRDNSKNTLYLQMGSLRAEDMAVYYCARDQGFAYWGQGTLVTVSS
VL: EIVMTQSPATLSVSPGERATLSCKASQDVGTAVAWYQQKPGQAPRLLIYWASTRHTGIPARFSGSGSGTEFTLTISSLQSEDFAVYYCQQYSSYPWTFGQGTKVEIKR
notes: Humanized IgG2 (V234A, G237A)/κ; also called No. 23
Regarding B1, in test [1], the Kd is 14.7 nM, the koff stood at 0.524 s⁻¹ and the association rate constant (kon) was 3.57e+07 M⁻¹ s⁻¹.

B2: HK2L2 (antibody, human IgG2, kappa, V domains shown)
VH: B1 VH with Y47L, A61P, N62D
VL: DIQMTQSPSSLSASVGDRVTITCKASQDVGTAVAWYQQKPGKVPKLLIYWASTRHTGVPSRFSGSGSGTDFTLTISSLQPEDVATYFCQQYSSYPWTFGQGTKVEIKR
notes: Humanized IgG2 (V234A, G237A)/κ; also called No. 12
In test [2], B2 displayed a Kd of 1.38 nM, an off-rate (koff) of 0.00157 s⁻¹ and a kon of 1.23e+06 M⁻¹ s⁻¹.

B3: HK3L1 (antibody, human IgG2, kappa, V domains shown)
VH: B1 VH with Y47L, S49A, A61P, N62D, R87K
VL: B2 VL with F87Y
notes: Humanized IgG2 (V234A, G237A)/κ; also called No. 16
In test [2], B3 returned a Kd of 1.76 nM, a koff of 0.00133 s⁻¹ and a kon of 783000 M⁻¹ s⁻¹.

B4: HK1L5 (antibody, human IgG2, kappa, V domains shown)
VH: B1 VH with A61P, N62D
VL: B2 VL with V43S
notes: Humanized IgG2 (V234A, G237A)/κ; also called No. 10
As for B4, in test [3], binding was put at a Kd of 1.78 nM, the koff was 0.00489 s⁻¹ and the kon amounted to 2.72e+06 M⁻¹ s⁻¹.

B5: HA1L5 (antibody, human IgG2, kappa, V domains shown)
VH: B1 VH
VL: B2 VL with V43S
notes: Humanized IgG2 (V234A, G237A)/κ; also called No. 25
B5: in test [4], the Kd was 7.2 nM, the koff amounted to 0.0452 s⁻¹ and the kon came to 6.36e+06 M⁻¹ s⁻¹.

B6: HK1L3 (antibody, human IgG2, kappa, V domains shown)
VH: B1 VH with A61P, N62D
VL: B1 VL
notes: Humanized IgG2 (V234A, G237A)/κ; also called No. 8
On to B6, for which, in test [4], the Kd is 4.87 nM, the koff worked out at 0.0196 s⁻¹ and the on-rate (kon) was determined as 3.71e+06 M⁻¹ s⁻¹.

B7: HA2L2 (antibody, human IgG2, kappa, V domains shown)
VH: B1 VH with Y47L
VL: B2 VL
notes: Humanized IgG2 (V234A, G237A)/κ; also called No. 27
In test [2], B7 displayed a Kd of 1.41 nM, a koff of 0.00222 s⁻¹ and a kon of 1.63e+06 M⁻¹ s⁻¹.

B8: HK2L1 (antibody, human IgG2, kappa, V domains shown)
VH: B1 VH with Y47L, A61P, N62D
VL: B2 VL with F87Y
notes: Humanized IgG2 (V234A, G237A)/κ; also called No. 11
As for B8, in test [2], the Kd worked out at 1.84 nM, the koff is 0.0016 s⁻¹ and the kon turned out to be 875000 M⁻¹ s⁻¹.

B9: HA1L1 (antibody, human IgG2, kappa, V domains shown)
VH: B1 VH
VL: B2 VL with F87Y
notes: Humanized IgG2 (V234A, G237A)/κ; also called No. 21
In test [1], B9 returned a Kd of 453 nM, a koff of 0.0279 s⁻¹ and a kon of 61500 M⁻¹ s⁻¹.

B10: HK3L2 (antibody, human IgG2, kappa, V domains shown)
VH: B1 VH with Y47L, S49A, A61P, N62D, R87K
VL: B2 VL
notes: Humanized IgG2 (V234A, G237A)/κ; also called No. 17
In test [2], B10 gave a Kd of 1.29 nM, a koff of 0.00145 s⁻¹ and a kon of 1.13e+06 M⁻¹ s⁻¹.

B11: HK1L4 (antibody, human IgG2, kappa, V domains shown)
VH: B1 VH with A61P, N62D
VL: B1 VL with Y87F
notes: Humanized IgG2 (V234A, G237A)/κ; also called No. 9
In test [4], B11 registered a dissociation constant (Kd) of 4.34 nM, a koff of 0.0118 s⁻¹ and a kon of 2.78e+06 M⁻¹ s⁻¹.

B12: HA2L1 (antibody, human IgG2, kappa, V domains shown)
VH: B1 VH with Y47L
VL: B2 VL with F87Y
notes: Humanized IgG2 (V234A, G237A)/κ; also called No. 26
For the molecule B12, in test [2], binding was put at a Kd of 1.76 nM, the koff came to 0.00166 s⁻¹ and the kon was 949000 M⁻¹ s⁻¹.

B13: HA1L2 (antibody, human IgG2, kappa, V domains shown)
VH: B1 VH
VL: B2 VL
notes: Humanized IgG2 (V234A, G237A)/κ; also called No. 22
Take B13: in test [4], binding was put at a Kd of 18.6 nM, the koff is 0.0122 s⁻¹ and the kon is 649000 M⁻¹ s⁻¹.

B14: HA1L4 (antibody, human IgG2, kappa, V domains shown)
VH: B1 VH
VL: B1 VL with Y87F
notes: Humanized IgG2 (V234A, G237A)/κ; also called No. 24
In test [1], B14 gave a Kd of 9.54 nM, a koff of 0.113 s⁻¹ and an on-rate constant (kon) of 1.18e+07 M⁻¹ s⁻¹.

B15: HA2L4(Lys-) (antibody, human IgG2, kappa)
heavy: EVQLVESGGGLVQPGGSLRLSCAASGFTFSSYGMSWVRQAPGKGLELVSTINSNGGRTYYANSVKGRFTISRDNSKNTLYLQMGSLRAEDMAVYYCARDQGFAYWGQGTLVTVSSASTKGPSVFPLAPCSRSTSESTAALGCLVKDYFPEPVTVSWNSGALTSGVHTFPAVLQSSGLYSLSSVVTVPSSNFGTQTYTCNVDHKPSNTKVDKTVERKCCVECPPCPAPPAAAPSVFLFPPKPKDTLMISRTPEVTCVVVDVSHEDPEVQFNWYVDGVEVHNAKTKPREEQFNSTFRVVSVLTVVHQDWLNGKEYKCKVSNKGLPAPIEKTISKTKGQPREPQVYTLPPSREEMTKNQVSLTCLVKGFYPSDIAVEWESNGQPENNYKTTPPMLDSDGSFFLYSKLTVDKSRWQQGNVFSCSVMHEALHNHYTQKSLSLSPG
light: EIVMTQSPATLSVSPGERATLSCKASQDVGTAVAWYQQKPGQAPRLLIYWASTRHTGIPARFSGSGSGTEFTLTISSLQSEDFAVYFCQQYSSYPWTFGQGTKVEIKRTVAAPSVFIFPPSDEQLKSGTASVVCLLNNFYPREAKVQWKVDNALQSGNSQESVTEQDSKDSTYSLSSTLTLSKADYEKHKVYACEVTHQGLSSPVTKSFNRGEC
notes: Humanized IgG2 (V234A, G237A)/κ; also called No. 32
In test [5], B15 returned a Kd of 0.83 nM, a koff of 0.00162 s⁻¹ and a kon of 2.43e+06 M⁻¹ s⁻¹.

B16: HK2L5(Lys-) (antibody, human IgG2, kappa)
heavy: B15 heavy with A61P, N62D
light: DIQMTQSPSSLSASVGDRVTITCKASQDVGTAVAWYQQKPGKSPKLLIYWASTRHTGVPSRFSGSGSGTDFTLTISSLQPEDVATYFCQQYSSYPWTFGQGTKVEIKRTVAAPSVFIFPPSDEQLKSGTASVVCLLNNFYPREAKVQWKVDNALQSGNSQESVTEQDSKDSTYSLSSTLTLSKADYEKHKVYACEVTHQGLSSPVTKSFNRGEC
notes: Humanized IgG2 (V234A, G237A)/κ; also called No. 36
In test [5], B16 had a Kd of 0.617 nM, a koff of 0.00113 s⁻¹ and a kon of 1.93e+06 M⁻¹ s⁻¹.

B17: HA2L6(Lys-) (antibody, human IgG2, kappa, V domains shown)
VH: B1 VH with Y47L
VL: B1 VL with A43S, Y87F
notes: Humanized IgG2 (V234A, G237A)/κ; also called No. 40
For the molecule B17, in test [3], binding was put at a Kd of 0.838 nM, the koff was 0.00151 s⁻¹ and the kon was found to be 1.83e+06 M⁻¹ s⁻¹.

B18: HK3L6(Lys-) (antibody, human IgG2, kappa, V domains shown)
VH: B1 VH with Y47L, S49A, A61P, N62D, R87K
VL: B1 VL with A43S, Y87F
notes: Humanized IgG2 (V234A, G237A)/κ; also called No. 42
On to B18, for which, in test [3], the Kd came to 0.766 nM, the koff stood at 0.00114 s⁻¹ and the kon worked out at 1.51e+06 M⁻¹ s⁻¹.

B19: HA2L5(Lys-) (antibody, human IgG2, kappa)
heavy: B15 heavy
light: B16 light
notes: Humanized IgG2 (V234A, G237A)/κ; also called No. 33
With B19, in test [3], binding was characterised by a dissociation constant (Kd) of 0.776 nM, the koff came out at 0.0015 s⁻¹ and the kon was 2.01e+06 M⁻¹ s⁻¹.

The record behind these values is patent US20170096493A1 (EISAI R AND D MANAGEMENT, published 2017).
